Measured values taken from patent publication US6207816.

Columns and labels:
[1] = biological target: T1, KGF (hKGF) (Homo sapiens) (UniProt P21781); experiment: filter; settings: 2'-F pyrimidines
T1 sequence: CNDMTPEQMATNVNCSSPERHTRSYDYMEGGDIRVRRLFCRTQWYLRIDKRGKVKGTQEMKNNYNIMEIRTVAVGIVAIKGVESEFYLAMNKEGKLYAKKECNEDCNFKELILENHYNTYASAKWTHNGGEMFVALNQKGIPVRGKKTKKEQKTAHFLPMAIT

[2] = biological target: T1, KGF (hKGF) (Homo sapiens); experiment: competition; settings: 2'-F pyrimidines; for IC50: PC-3 assay

## GGGAGGACGAUGCGGCAANNNNNNNCUCUCUCCUGGCGUUCCGCAACCCGCCCCCAGACGACUCGCCCGA [19F]
[1]; second column 0.94-2.57
  Kd: 1500 pM

## GGGAGGACGAUGCGGGAAUUAACAGGGCCAGAAUUCUCAUCUNNCUUCCCGUGACCCAGACGACUCGCCCGA [12F]
[1]; DPBS, 37 C
  Kd: 1380 pM

## GGGAGGACGAUGCGGGAAUUCCCAGCGCUUGACUGAUACAAACNUUCCCGUGCCGCAGACGACUCGCCCGA [16F]
[1]; biphasic, high affinity 49%, Kd2 3.39 nM
  Kd: 830 pM

## GGGAGGACGAUGCGGGGACAAWYAGCGGUGUCUUUUCAUUUNKAUCCUCCGACRUCCCAGACGACUCGCCCGA [56F (K56F)]
[2]
  IC50: 1000 pM

## GGGAGGACGAUGCGGGGACAAWYAGCGGUGUCUUUUCAUUUNKAUCCUCCGACRUCCCAGACGACUCGCCCGA [56F]
[1]; biphasic, 32% high affinity, Kd2 3.00 nM
  Kd: 70 pM

## GGGAGGACGAUGCGGNGACUGAUUUUUCCUUGNBCAGUGUAAUUUCCUGGCUGCCCCAGACGACUCGCCCGA [38F (K38F)]
[2]
  IC50: 600 pM
[2]; PC-3 cells, 20 nM on NIH3T3/FGFR-2
  Ki: 220 pM

## GGGAGGACGAUGCGGNGACUGAUUUUUCCUUGNBCAGUGUAAUUUCCUGGCUGCCCCAGACGACUCGCCCGA [38F]
[1]; DPBS, 37 C
  Kd: 330 pM
